Experimental data as given in paper PMC10191836 (2023).
Blank lines part the entries; values can stand above or below the binder they belong to.

Target: T1, C-terminal region of human LTBP-1 (human, UniProt Q14766 1347-1721)
T1 chain: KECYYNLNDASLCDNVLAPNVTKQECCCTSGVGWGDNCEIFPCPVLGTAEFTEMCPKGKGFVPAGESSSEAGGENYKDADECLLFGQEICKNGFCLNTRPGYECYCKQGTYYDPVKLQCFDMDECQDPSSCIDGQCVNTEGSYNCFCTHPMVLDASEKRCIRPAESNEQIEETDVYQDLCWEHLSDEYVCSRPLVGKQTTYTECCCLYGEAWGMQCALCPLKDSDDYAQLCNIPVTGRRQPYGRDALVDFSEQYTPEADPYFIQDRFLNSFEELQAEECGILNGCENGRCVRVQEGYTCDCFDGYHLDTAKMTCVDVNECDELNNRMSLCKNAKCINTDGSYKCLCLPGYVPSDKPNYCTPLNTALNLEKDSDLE
Test: SPR

Kd: 17.7 nM
B1: recombinant human fibrillin-1 N-terminal fragment PF3 (domain or fragment)
chain: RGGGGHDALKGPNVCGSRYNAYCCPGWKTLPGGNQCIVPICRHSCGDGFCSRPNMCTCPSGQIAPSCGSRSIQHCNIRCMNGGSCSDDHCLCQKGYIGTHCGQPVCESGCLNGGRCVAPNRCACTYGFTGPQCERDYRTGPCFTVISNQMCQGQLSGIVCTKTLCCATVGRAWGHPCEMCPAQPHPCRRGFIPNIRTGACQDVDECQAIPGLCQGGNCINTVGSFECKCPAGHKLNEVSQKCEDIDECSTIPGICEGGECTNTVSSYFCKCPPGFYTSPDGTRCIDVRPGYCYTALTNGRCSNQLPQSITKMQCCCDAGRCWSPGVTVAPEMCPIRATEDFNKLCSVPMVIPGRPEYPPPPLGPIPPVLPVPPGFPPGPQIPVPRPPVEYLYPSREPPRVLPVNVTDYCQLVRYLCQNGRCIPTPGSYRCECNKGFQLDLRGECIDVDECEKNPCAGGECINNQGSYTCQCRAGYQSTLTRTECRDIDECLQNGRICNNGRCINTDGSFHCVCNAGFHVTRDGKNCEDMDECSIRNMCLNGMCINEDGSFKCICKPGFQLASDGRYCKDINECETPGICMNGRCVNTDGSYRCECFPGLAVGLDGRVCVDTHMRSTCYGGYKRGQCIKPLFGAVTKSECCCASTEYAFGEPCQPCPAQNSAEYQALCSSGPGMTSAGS

Kd: 50.1 nM
B2: recombinant human fibrillin-1 N-terminal fragment PF3 with the WMS deletion (domains TB1–PRR–EGF4) (domain or fragment)
chain: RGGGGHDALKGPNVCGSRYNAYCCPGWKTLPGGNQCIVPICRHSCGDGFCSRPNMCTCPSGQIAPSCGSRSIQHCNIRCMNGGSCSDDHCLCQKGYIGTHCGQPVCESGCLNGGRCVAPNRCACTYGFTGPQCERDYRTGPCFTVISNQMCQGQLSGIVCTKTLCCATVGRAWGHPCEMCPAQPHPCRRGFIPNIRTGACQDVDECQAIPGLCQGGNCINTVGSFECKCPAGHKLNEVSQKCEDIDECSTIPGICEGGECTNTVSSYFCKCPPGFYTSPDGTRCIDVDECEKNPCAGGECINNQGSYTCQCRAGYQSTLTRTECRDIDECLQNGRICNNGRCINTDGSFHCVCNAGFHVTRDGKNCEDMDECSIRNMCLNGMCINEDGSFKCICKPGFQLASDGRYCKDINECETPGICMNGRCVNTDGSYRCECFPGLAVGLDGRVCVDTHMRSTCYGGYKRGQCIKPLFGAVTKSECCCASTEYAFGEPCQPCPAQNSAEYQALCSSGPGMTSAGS
modifications: Calcium bound to the cbEGF domains; disulfide bonded. The PF3 end is not printed: it is taken as the end of TB2 (722), because the paper's fragment boundaries are at 330 and 723. The WMS deletion TB1-PRR-EGF4 is taken as 330-489 from domain limits. The N-terminus is assumed to be processed at 44/45.
